This is an account of results in publication doi:10.1101/2024.01.24.577129 (2024).

What all share (assay): SPR
(In general: In SPR one partner is held on a chip, and binding of the other changes the refractive index at the surface.)

For experiment [1], the target named is D^d MHC class I monomer presenting […] (mouse | ).
Experiment [2] has as its target T1, K^d MHC class I monomer presenting VYLKTNVFL (mouse | ).
T1 chain 1: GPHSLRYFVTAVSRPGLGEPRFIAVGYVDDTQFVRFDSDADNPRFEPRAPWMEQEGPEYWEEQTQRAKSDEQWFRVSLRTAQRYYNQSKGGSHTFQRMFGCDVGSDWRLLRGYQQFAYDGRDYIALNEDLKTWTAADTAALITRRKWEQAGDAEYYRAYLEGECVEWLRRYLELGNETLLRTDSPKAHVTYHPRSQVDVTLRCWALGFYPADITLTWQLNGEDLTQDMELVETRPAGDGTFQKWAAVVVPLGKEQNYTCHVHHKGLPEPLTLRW
T1 chain 2: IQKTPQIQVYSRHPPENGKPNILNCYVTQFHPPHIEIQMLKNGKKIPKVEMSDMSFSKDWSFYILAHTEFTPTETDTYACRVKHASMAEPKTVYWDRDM
T1 chain 3: VYLKTNVFL

In experiment [3] the target is T2, K^b MHC class I monomer presenting SIINFEKL (mouse | ).
T2 chain 1: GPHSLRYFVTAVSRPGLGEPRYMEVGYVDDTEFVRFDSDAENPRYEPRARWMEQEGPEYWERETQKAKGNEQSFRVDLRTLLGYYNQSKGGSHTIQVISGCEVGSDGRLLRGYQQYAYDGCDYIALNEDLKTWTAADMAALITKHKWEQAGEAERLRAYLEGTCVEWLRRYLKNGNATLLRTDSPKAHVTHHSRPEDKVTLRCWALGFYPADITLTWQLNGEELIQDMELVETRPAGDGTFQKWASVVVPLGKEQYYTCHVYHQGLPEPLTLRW
T2 chain 2: T1 chain 2
T2 chain 3: SIINFEKL

B1: 34-1-2S antibody (antibody, V domains shown)
VH: EVQLQQSGAEFVRPGASVKLSCTASGFNLKDDYMFWVKQRPEQGLEWIGWIAPDNGDTEYASKFQGKATITADTSSNTAYVQLSSLTSEDTAVYYCTTWGYYSYVNYWGQGTTLTVSS
VL: DIQMTQSPSSLSASLGERVSLTCRASQDIGSNLNWLQQEPDGTIKRLIYATYSLDSGVPKRFSGSRSGSDYSLTISSLESEDFVDYYCLQYASSPYTFGGGTKLEIK
The term Kd denotes the equilibrium constant for the complex coming apart. Lower therefore signals tighter binding. Take B1: the Kd worked out at 30 nM in experiment [1], 9.1 nM in experiment [2] and 2490 nM in experiment [3].
